This passage reports fold reduction in binding against wild-type GRFT, Kd and stoichiometry N results from article PMC3474606.

Assay [1] has as its target recombinant gp120 from HIV-1(ADA) strain (HIV-1 (ADA)). In words: ELISA.
For assay [2] the target is unchanged. The assay is described as follows: SPR. On the technique in general: SPR reads the build-up and loss of mass on a sensor chip optically.
Assay [3] has as its target recombinant gp120 from HIV-1(IIIB) strain, glycosylated (HIV-1 (IIIB)) (UniProt P04578). The assay is described as follows: SPR.
The target in a further assay is GRFT D30A (red algae) (UniProt P84801). The assay is described as follows: AUC.
Assay [4] addresses recombinant gp41 protein from HIV-1(HxB2) (HIV-1 (HxB2)) (UniProt P04578). In words: SPR.
The target in a further assay is GRFT D112A (red algae) (UniProt P84801). The assay is described as follows: AUC.
For assay [5], the target named is trimeric gp140 derived from HIV-1/JR-FL (HIV-1 (JR-FL)). The assay is described as follows: SPR.
Assay [6] deals with monomeric gp120 derived from HIV-1/JR-FL (HIV-1 (JR-FL)). In words: SPR.
The target in assay [7] is wild-type griffithsin (GRFT) (red algae) (UniProt P84801). In words: AUC.

Take “GRFT D30A (from UniProt P84801 1-121) (natural protein)”: in assay [1], the fold reduction in binding against wild-type GRFT amounted to 10 fold. Besides, the figures for the dissociation constant Kd in assay [2] and in assay [3] were 0.123 nM and 0.156 nM, respectively. Also, the stoichiometry N with GRFT D30A (red algae) worked out at 2.
Turning to “GRFT D70A (from UniProt P84801 1-121) (natural protein)”, the fold reduction in binding against wild-type GRFT in [1] came to 10 fold. Besides, the dissociation constant Kd in assay [2] worked out at 0.194 nM; in assay [4], 0.165 nM; in [3], 0.245 nM.
For the substance “GRFT D112A (from UniProt P84801 1-121) (natural protein)”, the fold reduction in binding against wild-type GRFT in [1] is 10 fold. Also, the figures for the dissociation constant (Kd) in [2], in [4] and in assay [3] were 0.122 nM, 0.131 nM and 0.142 nM, respectively. Further, the stoichiometry N with GRFT D112A (red algae) was found to be 2.
As for “wild-type griffithsin (GRFT) (from UniProt P84801 1-121) (natural protein)”, the dissociation constant Kd was 0.0732 nM in [2]; 0.0449 nM in assay [4]; 0.152 nM in assay [5]; 0.111 nM in assay [6]; 0.0727 nM in assay [3]. Also, the stoichiometry N in assay [7] amounted to 2.

The term Kd denotes the free concentration of one partner at which half of the binding sites on the other are occupied at equilibrium, for simple one-to-one binding. In general, stoichiometry N refers to the number of molecules, sites or subunits per partner or assembly.
